Measurements: patent US20090285830A1 (published 2009)
Numbering of substitutions follows the chain as printed. In names and notes the source's numbering stands.

T1: recombinant human lymphotoxin-α (LTα), homotrimer LTα3 (human, UniProt P01374 35-205)
T1 construct: One molecule is used for 'LTα' (plate ELISA), 'rhLTα' (BIACORE, phage ELISA) and 'human LTα3'; also called human LTα3; rhLTα
T1 sequence (looked up): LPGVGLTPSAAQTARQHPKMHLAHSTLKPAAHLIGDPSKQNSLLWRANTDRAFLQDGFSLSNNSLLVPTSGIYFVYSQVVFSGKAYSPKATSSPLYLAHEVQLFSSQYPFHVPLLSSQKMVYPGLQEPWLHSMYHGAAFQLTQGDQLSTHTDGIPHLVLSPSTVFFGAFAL

T2: recombinant human lymphotoxin-α (LTα), homotrimer LTα3 (human) (UniProt P01374)
T2 sequence (looked up): T1 sequence (looked up)

B1: chimeric anti-LTα antibody 2C8 (murine/human chimera) (antibody, human IgG1, kappa, V domains shown)
VH: EVQLQQSGPELVKPGASVKLSCKASGYTFTSYVIHWVKQKPGQGLEWIGYNNPYNDGTNYNEKFKGKATLTSDKSSSTAYMELSSLTSEDSAVYYCSRPTMLPWFAYWGQGTTLTVSA
VL: DIVMTQSHKFMSTSVGDRVSITCKASQAVSSAVAWYQQKPGQSPKLQIYSASHRYTGVPDRFTGSGSGTDFTFTISSVQAEDLAVYYCQQHYSTPWTFGGGTKVEIKR
notes: also called 2C8 chimera; 2C8.chimera
B2: humanized 3F12 version 8 (v5 with CDR-H3 G95A) (antibody, V domains shown)
VH: EVQLVESGGGLVQPGGSLRLSCAASGYTFSSYWIEWVRQAPGKGLEWVGEISPGSGSTNYNEEFKGRATFSADNSKNTAYLQMNSLRAEDTAVYYCADAYHGYWGQGTLVTVSS
VL: DIQMTQSPSSLSASVGDRVTITCKSSQSLLYSTNQKNFLAWYQQKPGKAPKLLIYWASTRDSGVPSRFSGSGSGTDFTLTISSLQPEDFATYYCQQYYSYPRTFGQGTKVEIK
B3: humanized 3F12 v2 (antibody, V domains shown)
VH: B2 VH with A79L, A99G
VL: DIQMTQSPSSLSASVGDRVTITCKSSQSLLYSTNQKNFLAWYQQKPGKAPKLLIYWASTRDSGVPSRFSGSGSGTDFTLTISSLQPEDFATYYCQQYYSYPRTFGQGTKVEIKR
B4: humanized 3F12 v3 (antibody, V domains shown)
VH: B2 VH with F70I, N74K, A79L, A99G
VL: B3 VL
B5: humanized 3F12 version 10 (v5 with CDR-H3 H100A) (antibody, V domains shown)
VH: B2 VH with A99G, H101A
VL: B2 VL
B6: humanized 3F12 v4 (antibody, V domains shown)
VH: B2 VH with F70I, A99G
VL: B3 VL
B7: humanized 2C8.v2 (antibody, IgG1, V domains shown)
VH: EVQLVESGGGLVQPGGSLRLSCAASGYTFTSYVIHWVRQAPGKGLEWVGYNNPYNDGTNYNEKFKGRATISSDKSKNTAYLQMNSLRAEDTAVYYCSRPTMLPWFAYWGQGTLVTVSS
VL: DIQMTQSPSSLSASVGDRVTITCRASQAVSSAVAWYQQKPGKAPKLQIYSASHRYTGVPSRFSGSGSGTDFTLTISSLQPEDFATYYCQQHYSTPWTFGQGTKVEIKR
notes: also called Version 2; wild-type 2C8.v2
B8: humanized 2C8.v7 (antibody, V domains shown)
VH: B7 VH
VL: B7 VL with Q47L
B9: humanized 2C8.v16 (antibody, V domains shown)
VH: B7 VH with A68F
VL: B7 VL with Q47L, Q90E, H91S
notes: HC v12 = HC v2 + A67F
B10: humanized 2C8.v12 (antibody, V domains shown)
VH: B7 VH with A68F
VL: B7 VL with Q47L
notes: HC v12 = HC v2 + A67F); also called Version 12

Legend:
[1] = target: T1, recombinant human lymphotoxin-α (LTα), …; test: plate-based ELISA on human LTα, ratio to the chimera
[2] = target: T2, recombinant human lymphotoxin-α (LTα), homotrimer LTα3 (human); test: plate-based ELISA against LTα
[3] = target: T1, recombinant human lymphotoxin-α (LTα), …; test: plate ELISA on coated LTα

| Binder | ELISA IC50 ratio [1] | Relative binding (to the original chimera) [3] [x down] | also measured |
| --- | --- | --- | --- |
| B1 | 1 |  |  |
| B2 |  |  | relative binding (EC50 of the variant / EC50 of version 5) [2]: > 100 |
| B3 |  | > 1000 |  |
| B4 |  | > 1000 |  |
| B5 |  |  | relative binding (EC50 of the variant / EC50 of version 5) [2]: > 100 |
| B6 |  | > 500 |  |
| B7 | 1.7 |  |  |
| B8 | 1.2 |  |  |
| B9 | 0.6 |  |  |
| B10 | 1 |  |  |
